# pIC50: −log10 of the molar value. “Also recorded” adds a separate entry of the source. Where two headings read alike, the source gives them in different places. Marks after values point to notes of the source that are not given here.
# Tests used:
# [1] = system: KB-CR2000 (cisplatin resistant) tumors; experiment: Cisplatin-resistant KB-CR2000 tumor model; format: in vivo, mice
# Excerpt: METHOD. Human cisplatin-resistant cell line. […] In addition, regrowth of the tumor was only observed in 1/5 test animals.
# ST502 tumors = experiment: TNBC PDX tumor model; format: in vivo, Balb/c nu/nu mice; conditions: combined with Eribulin mesylate 1 mg/kg
# Procedure: (§1) Female Balb/c nu/nu mice were fed ad libitum with folate-deficient chow (Harlan diet #TD01013) for the duration of the experiment. Primary human Endometrial model ST040, TNBC models 5T502 and ST738 and Ovarian model ST024 fragments (2-4 mm in diameter) were inoculated subcutaneously at the right flank of each mouse. Mice were randomized into 6 experimental groups of 5 or 3 mice each and test articles were injected through the lateral tail vein under sterile conditions in a volume of 200 μL of phosphate-buffered saline (PBS).
# (§2) Growth of each s.c. tumor was followed by measuring the tumor two times per week until a volume of 1200 mm^3 was reached. Tumors were measured in two perpendicular directions using Vernier calipers, and their volumes were calculated as 0.5×L×W^2, where L=measurement of longest axis in mm and W=measurement of axis perpendicular to L in mm.
# ST738 tumors = experiment: TNBC PDX tumor model; format: in vivo, Balb/c nu/nu mice; conditions: combined with Eribulin mesylate 1 mg/kg
# Procedure: as §1, §2
# KB cells = format: cell-based, human
# Procedure: METHOD. Inhibition of Cellular DNA Synthesis. The compounds described herein were evaluated using an in vitro cytotoxicity assay that predicts the ability of the drug to inhibit the growth of folate receptor-positive cells, such as KB cells, RAW264.7 macrophages, and the like. It is to be understood that the choice of cell type can made on the basis of the susceptibility of those selected cells to the drug that forms the conjugate. The test compounds were comprised of folate linked to a respective chemotherapeutic drug, as prepared according to the processes described herein. The test cells were exposed to varying concentrations of folate-drug conjugate, and also in the absence or presence of at least a 100-fold excess of folic acid to assess activity as being specific to folate receptor mediation.
# Conjugates of cytotoxic drugs described herein are active against KB cells. The activity is mediated by the folate receptor as indicated by competition experiments using co-administered folic acid. KB cells were exposed for up to 7 h at 37° C. to the indicated concentrations of folate-drug conjugate in the absence or presence of at least a 100-fold excess of folic acid. The cells were then rinsed once with fresh culture medium and incubated in fresh culture medium for 72 hours at 37° C. Cell viability was assessed using a ^3H-thymidine incorporation assay. For compounds described herein, dose-dependent cytotoxicity was generally measurable, and in most cases, the IC50 values (concentration of drug conjugate required to reduce ^3H-thymidine incorporation into newly synthesized DNA by 50%) are in the low nanomolar range.
# METHOD. In vitro activity against various cancer cell lines. IC50 values were generated for various cell lines. Cells were heavily seeded in 24-well Falcon plates and allowed to form nearly confluent monolayers overnight. Thirty minutes prior to the addition of the test compound, spent medium was aspirated from all wells and replaced with fresh folate-deficient RPMI medium (FFRPMI). A subset of wells were designated to receive media containing 100 μM folic acid. The cells in the designated wells were used to determine the targeting specificity. Without being bound by theory it is believed herein that the cytotoxic activity produced by test compounds in the presence of excess folic acid, i.e. where there is competition for FR binding, corresponds to the portion of the total activity that is unrelated to FR-specific delivery. Following one rinse with 1 mL of fresh FFRPMI containing 10% heat-inactivated fetal calf serum, each well received 1 mL of medium containing increasing concentrations of test compound (4 wells per sample) in the presence or absence of 100 μM free folic acid as indicated. Treated cells were pulsed for 2 h at 37° C., rinsed 4 times with 0.5 mL of media, and then chased in 1 mL of fresh medium up to 70 h. Spent medium was aspirated from all wells and replaced with fresh medium containing 5 μCi/mL ^3H-thymidine. Following a further 2 h 37° C. incubation, cells were washed 3 times with 0.5 mL of PBS and then treated with 0.5 mL of ice-cold 5% trichloroacetic acid per well. After 15 min, the trichloroacetic acid was aspirated and the cell material solubilized by the addition of 0.5 mL of 0.25 N sodium hydroxide for 15 min. A 450 μL aliquot of each solubilized sample was transferred to a scintillation vial containing 3 mL of Ecolume scintillation cocktail and then counted in a liquid scintillation counter. Final results are expressed as the percentage of ^3H-thymidine incorporation relative to untreated controls.
# [2] = Toxicity as measured by weight loss / gross animal toxicity in tumor-bearing mice; conditions: for Toxicity Avg. Weight Loss / Toxicity Deaths (%): TIW
# Procedure: METHOD. Toxicity as Measured by Weight Loss. The percentage weight change of the test animals was determined on selected days post-tumor inoculation (PTI), and during dosing. The results were graphed.
# Evaluation. Tumor size was monitored and body weight measured 3 times/week. Attention was given to gross animal morphology and behavior. Euthanasia was performed if the mice lost >20% of weight or when the tumors reached a size of 1500 mm3. Euthanasia was also performed at the researcher's discretion if mice lost a lot of weight in a short duration or when mice were approaching moribund conditions. Blood samples were collected by cardiac puncture from all viable animals from selected cohorts. Heart, lungs, liver, spleen, kidney, intestines, bone, brain and muscle were obtained immediately after euthanasia. The tissues were removed and stored in 10% neutral-buffered formalin.
# [3] = system: FR expressing cells (FR+) and cells that do not express FR (FR−); experiment: Selectivity for folate receptor expressing cells; format: cell-based, human
# [4] = 2 μmol/kg i.v. TIW 2 weeks, nearly 70 day observation period
# [5] = EC1456 2 μmol/kg two times a week for two weeks
# [6] = EC1456 4 μmol/kg once a week for two weeks
# [7] = difference in IC50 between competed and non-competed group
# [8] = KB tumors, 0.5 μmol/kg, 3 weeks
# [9] = KB tumors, 0.67 μmol/kg, 2 weeks
# [10] = KB tumors, 1.0 μmol/kg, 2 weeks
# [11] = KB tumors, 2.0 μmol/kg, 2 weeks
structure (smiles),measurement,setting,value
CCCC(=O)OCN(C(=O)[C@@H](NC(=O)[C@H]1CCCCN1C)C(C)CC)[C@H](C[C@@H](OC(C)=O)c1nc(C(=O)N[C@@H](Cc2ccc(O)cc2)C[C@H](C)C(=O)NNC(=O)OCCSSC[C@@H](NC(=O)[C@H](CCC(=O)NC[C@H](O)[C@@H](O)[C@H](O)[C@H](O)CO)NC(=O)[C@@H](CCC(=O)O)NC(=O)[C@H](CCC(=O)NC[C@H](O)[C@@H](O)[C@H](O)[C@H](O)CO)NC(=O)[C@@H](CCC(=O)O)NC(=O)[C@H](CCC(=O)NC[C@H](O)[C@@H](O)[C@H](O)[C@H](O)CO)NC(=O)CC[C@@H](NC(=O)c2ccc(NCc3cnc4nc(N)[nH]c(=O)c4n3)cc2)C(=O)O)C(=O)O)cs1)C(C)C (stereo in doubt) [EC1456],"regrowth of the tumor, test animals",[1]; [4],1/5
same,test animals cured (no regrowth),[1]; [4],4/5
same,CRs,"[1]; 2 μmol/kg i.v. three times per week, 2 weeks",5/5
same,animals exhibiting CRs,ST502 tumors; [5],5 animals
same,animals exhibiting cures,ST502 tumors; [5],2 animals
same,animals exhibiting CR's,ST502 tumors; [6],3 animals
same,animals exhibiting PR's,ST502 tumors; [6],4 animals
same,animals exhibiting cures,ST738 tumors; [5],7 animals
same,animals exhibiting PR's,ST738 tumors; [6],2 animals
same,animals exhibiting cures,ST738 tumors; [6],4 animals
same,pIC50,"KB cells; FR expression +++, read-out: Activity (IC50)",8.64
same,IC50,"KB cells; IC50 when competed with excess folic acid, read-out: 50% competition (nM) (c)",1420 nM
same,IC50,"KB cells; as determined by thymidine incorporation, read-out: In vitro IC50 (nM) (b)",1.5 nM
same,In vitro specificity (fold) (d),KB cells; [7],944 fold
same,specificity for the folate receptor as determined by folic acid competition,KB cells; [7],ca. 1000 fold
same,Competable up to 100 nM,KB cells; folic acid competition,Yes
same,improvement in specificity compared to comparator compound EC0531,KB cells; folic acid competition,4 fold
same,whole animal toxicity as determined by animal body weight,"[2]; KB tumors in nu/nu mice, 1 μmol/kg TIW, 2 weeks",did not result in any observable whole animal toxicity; also recorded: did not show any evidence of whole animal toxicity
same,gross animal toxicity,"[2]; KB tumors, carboplatin/paclitaxel study, EC1456 alone 1 μmol/kg BIW×2",Gross animal toxicity was not observed
same,toxicity,"[2]; KB tumors, carboplatin/paclitaxel study, carboplatin in combination with EC1456",Mild toxicity
same,Toxicity Avg. Weight Loss,[2]; [8],<5%*
same,Toxicity Deaths (%),[2]; [8],0%
same,Toxicity Avg. Weight Loss,[2]; [9],<2%
same,Toxicity Deaths (%),[2]; [9],0%
same,Toxicity Avg. Weight Loss,[2]; [10],<1.5%
same,Toxicity Deaths (%),[2]; [10],0%
same,Toxicity Avg. Weight Loss,[2]; [11],<3%
same,Toxicity Deaths (%),[2]; [11],0%
same,gross animal toxicity,"[2]; KB tumors, EC1456 alone 1 μmol/kg BIW×2",Gross animal toxicity was not observed
same,gross animal toxicity,"[2]; KB tumors, EC1456 alone 1 μmol/kg TIW×5",Gross animal toxicity was not observed
same,toxicity,"[2]; KB tumors, cisplatin 3 mg/kg BIW×3 in combination with EC1456",Mild toxicity
same,toxicity,"[2]; KB tumors, docetaxel 7 mg/kg BIW×3 in combination with EC1456",Mild toxicity
same,weight loss / host animal toxicity,"[2]; KB-CR2000 tumors, EC1456 2 μmol/kg TIW 2 weeks",did not exhibit significant host animal toxicity; also recorded: did not cause any weight loss
same,gross animal toxicity,"[2]; KB-DR150 tumors, EC1456 alone 2 μmol/kg TIW×2",Gross animal toxicity was not observed
same,toxicity,"[2]; KB-DR150 tumors, doxorubicin in combination with EC1456",Mild toxicity
same,gross animal toxicity,"[2]; M109 tumors, EC1456 alone 2 μmol/kg TIW×2",Gross animal toxicity was not observed
same,toxicity,"[2]; M109 tumors, cisplatin in combination with EC1456",Mild toxicity
same,weight loss / gross whole animal toxicity (% weight change),"[2]; MDA-MB-231 tumors, 2 μmol/kg i.v. TIW 2 weeks",did not cause gross whole animal toxicity; also recorded: not accompanied by significant weight loss
same,gross animal toxicity,"[2]; P-1635 KB tumors, EC1456 alone 1 μmol/kg TIW×2",Gross animal toxicity was not observed
same,toxicity,"[2]; P-1635 KB tumors, carboplatin 50 mg/kg TIW in combination with EC1456",Mild toxicity
same,binding to low and high FR expressing cells (FR+),[3]; FR+ cells,high competable binding
same,binding to cells that do not express FR (FR−),[3]; FR− cells,did not show binding

# Source: US20170035894A1, “DRUG DELIVERY CONJUGATES FOR TREATING RESISTANT CANCER AND FOR USE IN COMBINATION THERAPY” (ENDOCYTE, INC., priority 2014, published 2017)
